# Measurements: paper PMC6715699
# Target: T1, TRF2 (UniProt Q15554)
# T1 sequence: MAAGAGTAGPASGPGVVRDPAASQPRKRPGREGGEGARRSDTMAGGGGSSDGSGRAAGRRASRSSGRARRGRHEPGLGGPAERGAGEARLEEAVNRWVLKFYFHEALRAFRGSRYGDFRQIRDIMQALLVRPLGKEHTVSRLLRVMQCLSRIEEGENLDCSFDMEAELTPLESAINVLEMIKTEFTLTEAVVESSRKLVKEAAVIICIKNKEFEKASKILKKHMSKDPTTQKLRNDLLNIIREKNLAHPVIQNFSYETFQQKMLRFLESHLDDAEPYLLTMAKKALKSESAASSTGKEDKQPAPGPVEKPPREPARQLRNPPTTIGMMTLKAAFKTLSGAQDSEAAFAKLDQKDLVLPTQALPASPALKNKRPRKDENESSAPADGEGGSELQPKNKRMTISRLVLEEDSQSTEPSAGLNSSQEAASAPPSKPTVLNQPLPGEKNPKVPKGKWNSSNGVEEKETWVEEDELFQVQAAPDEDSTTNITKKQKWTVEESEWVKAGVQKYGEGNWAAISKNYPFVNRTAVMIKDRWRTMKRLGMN
# Experiment: MST
# Settings: 50 nM labelled DNA; MST in standard MST buffer (composition and pH not given), premium-treated capillaries, Monolith NT.115; 20 min at room temperature stated for the protein …
sequence,measurement,value
TTAGGGTTAGGGTTAGGG (double strand) [TELO (TTAGGG)3],Kd,0.0122 µM
